{
  "source": "paper PMC3408481",
  "origin": "cited, not measured here",
  "key": {"PACAP (Homo sapiens)": {"molecular_target": "PACAP (Homo sapiens) (UniProt P18509)", "sequence (P18509 82-129)": "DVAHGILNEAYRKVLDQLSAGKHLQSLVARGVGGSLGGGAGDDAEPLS"}, "VIP (Homo sapiens)": {"molecular_target": "VIP (Homo sapiens) (UniProt P01282)", "sequence (P01282 125-152)": "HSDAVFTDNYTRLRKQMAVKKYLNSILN"}},
  "data": [
    {"substance": "PAC1 receptor (from UniProt P41586)", "values": [
      {"measurement": "Kd", "setting": "PACAP (Homo sapiens)", "result": 0.5, "unit": "nM"},
      {"measurement": "Kd", "setting": "VIP (Homo sapiens)", "result": 500, "unit": "nM"}
    ]}
  ]
}
